Read-outs that look alike come from different tables or passages of the source. Some results are limits rather than exact numbers.

For data set [1], the system named is T1, CaIDH.
T1 construct: gene IDH
To be noted: read-out: NAD^+ / Km; 1.0 mM isocitrate fixed; 35 mM Tris-HCl pH 7.5, 2 mM MgCl2 or MnCl2, 25°C; Methods print the second mutation as Asp594Arg.

Data set [2] has as its system T1, CaIDH. To be noted: read-out: NADP^+ / Km; 1.0 mM isocitrate fixed; 35 mM Tris-HCl pH 7.5, 2 mM MgCl2 or MnCl2, 25°C; Methods print the second mutation as Asp594Arg.
For data set [3], the target named is Ostreococcus lucimarinus CCE9901 isocitrate dehydrogenase (Ostreococcus lucimarinus CCE9901). The data set is described as follows: MALDI-TOF/TOF mass spectrometry; AB SCIEX MALDI TOF-TOF 5800, linear high mass positive-ion mode, SA matrix, TFA as ionization auxiliary reagent.
Data set [4] shares this target. The experiment in a line: SEC; Superdex 200 10/300 column, 0.05 M potassium phosphate pH 7.0, 0.15 M NaCl, 0.01% sodium azide, flow 0.5 ml/min; mass estimated against protein standards.
The target of data set [5] is Campylobacter sp. FOBRC14 isocitrate dehydrogenase (Campylobacter sp. FOBRC14). The description is as above.
The subject of data set [6] is NC(=O)c1ccc[n+]([C@@H]2O[C@H](COP(=O)(O)OP(=O)(O)OC[C@H]3O[C@@H](n4cnc5c(N)ncnc54)[C@H](O)[C@@H]3O)[C@@H](O)[C@H]2O)c1. The data set is described as follows: purified protein. To be noted: 1.0 mM isocitrate fixed, 35 mM Tris-HCl pH 7.5, 2 mM MgCl2 or MnCl2, 25°C, varied: cofactor.
Data set [7] deals with NC(=O)c1ccc[n+]([C@@H]2O[C@H](COP(=O)(O)OP(=O)(O)OC[C@H]3O[C@@H](n4cnc5c(N)ncnc54)[C@H](OP(=O)(O)O)[C@@H]3O)[C@@H](O)[C@H]2O)c1. The experiment in a line: purified protein. To be noted: 1.0 mM isocitrate fixed, 35 mM Tris-HCl pH 7.5, 2 mM MgCl2 or MnCl2, 25°C, varied: cofactor.
Substrate in data set [8]: NC(=O)c1ccc[n+]([C@@H]2O[C@H](COP(=O)(O)OP(=O)(O)OC[C@H]3O[C@@H](n4cnc5c(N)ncnc54)[C@H](O)[C@@H]3O)[C@@H](O)[C@H]2O)c1
The experiment in a line: purified protein. The format is biochemical, Ostreococcus sp. 'lucimarinus'. To be noted: 1.0 mM isocitrate fixed, 35 mM Tris-HCl pH 7.5, 2 mM MgCl2 or MnCl2, 25°C, varied: cofactor.

Substrate in data set [9]: NC(=O)c1ccc[n+]([C@@H]2O[C@H](COP(=O)(O)OP(=O)(O)OC[C@H]3O[C@@H](n4cnc5c(N)ncnc54)[C@H](OP(=O)(O)O)[C@@H]3O)[C@@H](O)[C@H]2O)c1
The experiment in a line: purified protein. The format is biochemical, Ostreococcus sp. 'lucimarinus'. To be noted: 1.0 mM isocitrate fixed, 35 mM Tris-HCl pH 7.5, 2 mM MgCl2 or MnCl2, 25°C, varied: cofactor.

Substrate in data set [10]: NC(=O)c1ccc[n+]([C@@H]2O[C@H](COP(=O)(O)OP(=O)(O)OC[C@H]3O[C@@H](n4cnc5c(N)ncnc54)[C@H](O)[C@@H]3O)[C@@H](O)[C@H]2O)c1
The experiment in a line: purified protein. The format is biochemical, Micromonas commoda. To be noted: 1.0 mM isocitrate fixed, 35 mM Tris-HCl pH 7.5, 2 mM MgCl2 or MnCl2, 25°C, varied: cofactor.

Substrate in data set [11]: NC(=O)c1ccc[n+]([C@@H]2O[C@H](COP(=O)(O)OP(=O)(O)OC[C@H]3O[C@@H](n4cnc5c(N)ncnc54)[C@H](OP(=O)(O)O)[C@@H]3O)[C@@H](O)[C@H]2O)c1
The experiment in a line: purified protein. Format: biochemical, Micromonas commoda. To be noted: 1.0 mM isocitrate fixed, 35 mM Tris-HCl pH 7.5, 2 mM MgCl2 or MnCl2, 25°C, varied: cofactor.

Regarding `NC(=O)c1ccc[n+]([C@@H]2O[C@H](COP(=O)(O)OP(=O)(O)OC[C@H]3O[C@@H](n4cnc5c(N)ncnc54)[C@H](O)[C@@H]3O)[C@@H](O)[C@H]2O)c1` [NAD^+], the Km in the data set on CaIDH [1] worked out at 493 ± 52.5 µM.

In the case of `NC(=O)c1ccc[n+]([C@@H]2O[C@H](COP(=O)(O)OP(=O)(O)OC[C@H]3O[C@@H](n4cnc5c(N)ncnc54)[C@H](OP(=O)(O)O)[C@@H]3O)[C@@H](O)[C@H]2O)c1` [NADP^+], the Km in the data set on CaIDH [2] was found to be 11.4 ± 4.6 µM.

With “Ostreococcus lucimarinus CCE9901 isocitrate dehydrogenase (enzyme)”, the stoichiometry N in data set [3] and in data set [4] was 2 throughout.

Turning to “Campylobacter sp. FOBRC14 isocitrate dehydrogenase (enzyme)”, in [5], the fraction eluting as dimer is below 5%.

For the molecule CaIDH (Campylobacter sp. FOBRC14), in data set [6], the Km turned out to be 28.9 ± 4.5 µM, the kcat (commonly the maximal rate divided by the concentration of active sites) is 7 ± 0.8 s⁻¹ and the kcat/Km (commonly the turnover number divided by the Michaelis constant) worked out at 242000 M⁻¹ s⁻¹. Besides, in data set [7], the Km was found to be 513.2 ± 14.9 µM, the catalytic constant (kcat) was found to be 1.9 ± 0.1 s⁻¹ and the kcat/Km worked out at 4000 M⁻¹ s⁻¹.

B1: OlIDH (Ostreococcus lucimarinus CCE9901) (protein)
chain: MSANASKITAAPMVYVRGEEMTAYVMDLIRAKWIEPRVDTTAWREFDLRAKNRDDTEDQVLRDVIEAGKAVKAIFKEPTVTPTADQVKRLGLRKSWGSPNGAMRRGWNGITISRDTIHIDGVELGYKKPVFFERHAVGGEYAAGYKNVGKGTLVTTFTPSEGPDAGKPVEVDSRTITDNEAAVVTYHNPYDNVHELARFFFGRCLEAKITPYVVTKKTVFKWQEPFWQIMKKVFDEEYKSKFVDAGVMKSGDELVHLLSDAATMKLVQWRQGGFGMAAHNYDGDVLTDELAQIHKSPGFITSNLVGVDENGTLIKEFEASHGTVADMDEARLRGEETSLNPLGMVEGLIGAMNHAADVHNVDKERTLAFTAKMRAVIHQLFREGKGTRDLSGPSGLTTEQFVDAVAERL
notes: full-length synthetic codon-optimised gene in pET-28b(+) NdeI/XhoI, 6xHis-tagged, E. coli Rosetta (DE3); about 46 kDa subunit, 415 residues as used in CD calculation; homodimer 93 kDa by MALDI
Take B1: in the data set “purified protein [8]”, the Km is 136.6 ± 13.6 µM, the kcat came out at 60.6 ± 3.8 s⁻¹ and the kcat/Km amounted to 444000 M⁻¹ s⁻¹. For the same molecule, in “purified protein [9]”, the Km was determined as 2211 ± 75 µM, the kcat was found to be 10 ± 1.6 s⁻¹ and the kcat/Km turned out to be 4500 M⁻¹ s⁻¹.

B2: OlIDH (Ostreococcus lucimarinus CCE9901; D326R/M327H) (protein)
chain: MSANASKITAAPMVYVRGEEMTAYVMDLIRAKWIEPRVDTTAWREFDLRAKNRDDTEDQVLRDVIEAGKAVKAIFKEPTVTPTADQVKRLGLRKSWGSPNGAMRRGWNGITISRDTIHIDGVELGYKKPVFFERHAVGGEYAAGYKNVGKGTLVTTFTPSEGPDAGKPVEVDSRTITDNEAAVVTYHNPYDNVHELARFFFGRCLEAKITPYVVTKKTVFKWQEPFWQIMKKVFDEEYKSKFVDAGVMKSGDELVHLLSDAATMKLVQWRQGGFGMAAHNYDGDVLTDELAQIHKSPGFITSNLVGVDENGTLIKEFEASHGTVARHDEARLRGEETSLNPLGMVEGLIGAMNHAADVHNVDKERTLAFTAKMRAVIHQLFREGKGTRDLSGPSGLTTEQFVDAVAERL
notes: as for B1
For B2, in the data set “purified protein [8]”, the Km was determined as 2941.3 ± 75.8 µM, the kcat amounted to 29.1 ± 7.9 s⁻¹ and the kcat/Km stood at 10000 M⁻¹ s⁻¹. In “purified protein [9]”, the Km turned out to be 8.2 ± 1.9 µM, the kcat came out at 1.8 ± 0.2 s⁻¹ and the kcat/Km is 220000 M⁻¹ s⁻¹.

B3: MiIDH (Micromonas commoda) (protein)
chain: MAAASAGGKIQAAPMVYVAGEEMTRYTMDLILERWIKPHVDTSAWEFFDLRAKNRDDTEDQVLRDVISAGARLKAIFKEPTITPTADQVKRLGLKKAWGSPNGAMRRGWNGITISRDTIHIDGVELGYKKPVFFERHAVGGEYSAGYKIVGKGKLTTTFVPEAGGEPIVVDDRKITDDLNAVVAYHNPLDNVAHLARIFFGRCLDAGIVPYVVTKKTVFKWQEPFWESMKTVFDAEFKQKFYEKGVMKPGSELVHLLSDAATMKLVVWTDGGFGMAAHNYDGDVLTDELAQVHKSPGFITSNLVGVDDNGTLIKEFEASHGTVTDMDEARLRGEETSLNPLGMVEGLIGAMNHAADVHGGSSGVHPWTGKLRAVIHKLFREGRGTRDLCGAGGLTTEQFIDAVAEEL
notes: full-length synthetic codon-optimised gene in pET-28b(+) NdeI/XhoI, 6xHis-tagged, E. coli Rosetta (DE3); described as homodimeric
For B3, in the data set “purified protein [10]”, the Km came out at 126 ± 5.3 µM, the kcat turned out to be 22.5 ± 2 s⁻¹ and the catalytic efficiency (kcat/Km) was 179000 M⁻¹ s⁻¹. For the same molecule, in “purified protein [11]”, the Km is 1827 ± 42.4 µM, the catalytic constant (kcat) is 1.4 ± 0.2 s⁻¹ and the kcat/Km was 800 M⁻¹ s⁻¹.

The record behind these values is article PMC4360740, “Novel Type II and Monomeric NAD^+ Specific Isocitrate Dehydrogenases: Phylogenetic Affinity, Enzymatic Characterization, and Evolutionary Implication” (Scientific Reports, 2015).
